T1: TWINKLE (UniProt Q96RR1 32-684)
T1 sequence: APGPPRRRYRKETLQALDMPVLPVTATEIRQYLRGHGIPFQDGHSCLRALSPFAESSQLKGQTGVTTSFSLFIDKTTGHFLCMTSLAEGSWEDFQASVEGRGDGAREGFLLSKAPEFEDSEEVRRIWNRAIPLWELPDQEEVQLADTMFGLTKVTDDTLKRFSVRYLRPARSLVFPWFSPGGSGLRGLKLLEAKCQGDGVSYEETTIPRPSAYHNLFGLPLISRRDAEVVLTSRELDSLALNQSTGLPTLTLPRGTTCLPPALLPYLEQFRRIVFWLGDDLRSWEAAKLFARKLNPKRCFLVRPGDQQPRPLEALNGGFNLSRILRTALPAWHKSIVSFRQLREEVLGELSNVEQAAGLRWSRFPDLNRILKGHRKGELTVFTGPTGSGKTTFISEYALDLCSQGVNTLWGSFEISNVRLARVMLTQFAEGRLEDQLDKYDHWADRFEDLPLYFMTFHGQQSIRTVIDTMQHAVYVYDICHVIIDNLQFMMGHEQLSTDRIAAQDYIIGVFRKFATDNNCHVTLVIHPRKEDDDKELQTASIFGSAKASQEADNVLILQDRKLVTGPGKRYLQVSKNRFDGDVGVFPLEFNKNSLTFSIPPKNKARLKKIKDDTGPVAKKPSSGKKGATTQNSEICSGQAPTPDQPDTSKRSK

B1: closed circular ssDNA (100 nt) (ssDNA)
DNA: GAGGGGTATGTTTTTTTTTTTTTTTTTTTTTTTTTTTTTTTTTTTTTTTTTTTTTTTTTTTTTTTTTTTTTTTTTTTTTTTTTTTTTTTTCATACCCCTAT
B2: linear dsDNA (100 bp) (dsDNA)
DNA 1: GATTTTTTTTTTTTTTTTTTTTTTTTTTTTTTTTTTTTTCATACCCCTATGAGGGGTATGTTTTTTTTTTTTTTTTTTTTTTTTTTTTTTTTTTTTTTAT
DNA 2: ATAAAAAAAAAAAAAAAAAAAAAAAAAAAAAAAAAAAAAACATACCCCTCATAGGGGTATGAAAAAAAAAAAAAAAAAAAAAAAAAAAAAAAAAAAAATC
B3: linear ssDNA (100 nt) (ssDNA)
DNA: GATTTTTTTTTTTTTTTTTTTTTTTTTTTTTTTTTTTTTCATACCCCTATGAGGGGTATGTTTTTTTTTTTTTTTTTTTTTTTTTTTTTTTTTTTTTTAT

Molecular target: T1, TWINKLE
Assay: EMSA

Binding result, binds:
B1, B2, B3

From PMC3241658
